From patent US20030223991A1

Tests used:
[1] = biological target: human CD200Ra (SEQ ID NO:2) (human) (UniProt Q8TD46); assay: cell-based or functional assay
[2] = biological target: mouse CD200Ra (SEQ ID NO:6) (mouse) (UniProt Q9ES57); assay: cell-based or functional assay
Sequence of UniProt Q9ES57 (Q9ES57 26-326 limits assumed): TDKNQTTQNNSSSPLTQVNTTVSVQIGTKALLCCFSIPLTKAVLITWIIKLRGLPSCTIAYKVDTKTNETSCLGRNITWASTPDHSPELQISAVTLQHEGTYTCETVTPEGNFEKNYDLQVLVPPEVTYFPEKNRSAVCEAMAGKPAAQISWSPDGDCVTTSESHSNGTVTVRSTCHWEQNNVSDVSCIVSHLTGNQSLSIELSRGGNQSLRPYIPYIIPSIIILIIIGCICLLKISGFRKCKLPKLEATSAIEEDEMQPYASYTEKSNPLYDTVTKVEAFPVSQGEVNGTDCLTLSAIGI

Sequence of UniProt Q8TD46 (Q8TD46 other isoform, or with tags, fused parts or gaps limits assumed): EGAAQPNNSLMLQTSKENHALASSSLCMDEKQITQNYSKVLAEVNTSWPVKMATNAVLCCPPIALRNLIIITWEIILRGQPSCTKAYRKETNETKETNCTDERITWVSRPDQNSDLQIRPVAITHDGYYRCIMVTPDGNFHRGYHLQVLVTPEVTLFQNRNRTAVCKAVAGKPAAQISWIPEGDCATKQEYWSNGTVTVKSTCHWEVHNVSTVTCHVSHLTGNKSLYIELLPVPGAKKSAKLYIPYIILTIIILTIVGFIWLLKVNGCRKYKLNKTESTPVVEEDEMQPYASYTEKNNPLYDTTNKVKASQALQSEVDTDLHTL

Row | Substance | Bioassay IC50 (inhibition of β-hexosaminidase secretion by mouse mast cells expressing human CD200Ra) [1] [nM] | Bioassay IC50 (inhibition of mast cell secretion) [2] [nM]
1 | huCD200-Ig (from UniProt P41217 31-232) (Fc fusion) | 0.3 | –
2 | muCD200-Ig (from UniProt O54901 31-232) (Fc fusion) | – | 1.3
